Source: US20230242620A1 (published 2023)

Experiments:
Test in all cases: SPR Biacore T100, 21-4-3 captured on anti-mouse IgG, 500 nM analyte
SEQ ID NO: 37 = biological target: T1, SEQ ID NO: 37
T1 construct: no mutations
Method: (§1) Binding measurements were performed using a Biacore T100 using a CM5 T120416 sensor chip, with running buffer HBS-EP+, 25° C. […] The anti-mouse IgG used was a polyclonal rabbit anti-mouse IgG antibodies reacting with all IgG subclasses, IgA and IgM (GE Healthcare; Cat #BR-1008-38; Lot #10056316). Immobilisation of the anti-mouse IgG was performed using manual amine coupling using a 7 minute injection of EDC/NHS for activation and a 7 minute injection of 1M ethanolamine HCl pH 8.5 for deactivation (Biacore, amine coupling kit).

SEQ ID NO: 81 = biological target: T2, SEQ ID NO: 81
T2 construct: L11V
Method: as §1

SEQ ID NO: 63 = biological target: T3, SEQ ID NO: 63
T3 construct: no mutations
Method: as §1

SEQ ID NO: 58 = biological target: T4, SEQ ID NO: 58
T4 construct: no mutations
Method: as §1

SEQ ID NO: 44 = biological target: T5, SEQ ID NO: 44
T5 construct: no mutations
Method: as §1

SEQ ID NO: 78 = biological target: T6, SEQ ID NO: 78
T6 construct: Q13R
Method: as §1

SEQ ID NO: 66 = biological target: T7, SEQ ID NO: 66
T7 construct: L11S
Method: as §1

SEQ ID NO: 57 = biological target: T8, SEQ ID NO: 57
T8 construct: no mutations
Method: as §1

SEQ ID NO: 70 = biological target: T9, SEQ ID NO: 70
T9 construct: T110Q
Method: as §1

SEQ ID NO: 39 = biological target: T10, SEQ ID NO: 39
T10 construct: no mutations
Method: as §1

SEQ ID NO: 75 = biological target: T11, SEQ ID NO: 75
T11 construct: no mutations
Method: as §1

SEQ ID NO: 48 = biological target: T12, SEQ ID NO: 48
T12 construct: no mutations
Method: as §1

SEQ ID NO: 64 = biological target: T13, SEQ ID NO: 64
T13 construct: no mutations
Method: as §1

SEQ ID NO: 86 = biological target: T14, SEQ ID NO: 86
T14 construct: L11S, T110Q
Method: as §1

SEQ ID NO: 65 = biological target: T15, SEQ ID NO: 65
T15 construct: P14A
Method: as §1

SEQ ID NO: 38 = biological target: T16, SEQ ID NO: 38
T16 construct: no mutations
Method: as §1

SEQ ID NO: 61 = biological target: T17, SEQ ID NO: 61
T17 construct: no mutations
Method: as §1

SEQ ID NO: 88 = biological target: T18, SEQ ID NO: 88
T18 construct: L11S, T110Q
Method: as §1

SEQ ID NO: 43 = biological target: T19, SEQ ID NO: 43
T19 construct: no mutations
Method: as §1

SEQ ID NO: 59 = biological target: T20, SEQ ID NO: 59
T20 construct: no mutations
Method: as §1

SEQ ID NO: 89 = biological target: T21, SEQ ID NO: 89
T21 construct: L11S, P14A, T110Q, S112G, S113G
Method: as §1

SEQ ID NO: 49 = biological target: T22, SEQ ID NO: 49
T22 construct: V5L, I23A, E44G, A49S, A68T, A74S, T78L, W79Y, K83R, T110Q, Q108L
Method: as §1

SEQ ID NO: 67 = biological target: T23, SEQ ID NO: 67
T23 construct: R83K
Method: as §1

SEQ ID NO: 47 = biological target: T24, SEQ ID NO: 47
T24 construct: no mutations
Method: as §1

SEQ ID NO: 68 = biological target: T25, SEQ ID NO: 68
T25 construct: P14A, L108Q
Method: as §1

SEQ ID NO: 74 = biological target: T26, SEQ ID NO: 74
T26 construct: no mutations
Method: as §1

SEQ ID NO: 80 = biological target: T27, SEQ ID NO: 80
T27 construct: T110Q, S112G, S113G
Method: as §1

SEQ ID NO: 76 = biological target: T28, SEQ ID NO: 76
T28 construct: no mutations
Method: as §1

SEQ ID NO: 52 = biological target: T29, SEQ ID NO: 52
T29 construct: S112G
Method: as §1

SEQ ID NO: 82 = biological target: T30, SEQ ID NO: 82
T30 construct: P84A
Method: as §1

SEQ ID NO: 72 = biological target: T31, SEQ ID NO: 72
T31 construct: S112G, S113G
Method: as §1

SEQ ID NO: 55 = biological target: T32, SEQ ID NO: 55
T32 construct: no mutations
Method: as §1

SEQ ID NO: 71 = biological target: T33, SEQ ID NO: 71
T33 construct: S113G
Method: as §1

SEQ ID NO: 77 = biological target: T34, SEQ ID NO: 77
T34 construct: no mutations
Method: as §1

SEQ ID NO: 83 = biological target: T35, SEQ ID NO: 83
T35 construct: T87A
Method: as §1

SEQ ID NO: 85 = biological target: T36, SEQ ID NO: 85
T36 construct: L11S, T110Q, S112G, S113G
Method: as §1

SEQ ID NO: 41 = biological target: T37, SEQ ID NO: 41
T37 construct: no mutations
Method: as §1

SEQ ID NO: 84 = biological target: T38, SEQ ID NO: 84
T38 construct: S112G
Method: as §1

SEQ ID NO: 69 = biological target: T39, SEQ ID NO: 69
T39 construct: L108Q
Method: as §1

SEQ ID NO: 45 = biological target: T40, SEQ ID NO: 45
T40 construct: P14A, P41T, S62F, S74A, S82bN, R83K, L108Q
Method: as §1

SEQ ID NO: 73 = biological target: T41, SEQ ID NO: 73
T41 construct: S112G, S113G
Method: as §1

SEQ ID NO: 62 = biological target: T42, SEQ ID NO: 62
T42 construct: no mutations
Method: as §1

SEQ ID NO: 87 = biological target: T43, SEQ ID NO: 87
T43 construct: L11S, S112G, S113G
Method: as §1

SEQ ID NO: 79 = biological target: T44, SEQ ID NO: 79
T44 construct: no mutations
Method: as §1

SEQ ID NO: 40 = biological target: T45, SEQ ID NO: 40
T45 construct: no mutations
Method: as §1

SEQ ID NO: 42 = biological target: T46, SEQ ID NO: 42
T46 construct: no mutations
Method: as §1

SEQ ID NO: 60 = biological target: T47, SEQ ID NO: 60
T47 construct: no mutations
Method: as §1

T38 sequence (VHH, as listed by the source): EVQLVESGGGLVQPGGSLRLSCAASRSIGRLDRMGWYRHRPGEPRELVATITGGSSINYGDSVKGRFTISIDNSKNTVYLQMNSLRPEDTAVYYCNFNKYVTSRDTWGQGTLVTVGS
T10 sequence (chain, as listed by the source): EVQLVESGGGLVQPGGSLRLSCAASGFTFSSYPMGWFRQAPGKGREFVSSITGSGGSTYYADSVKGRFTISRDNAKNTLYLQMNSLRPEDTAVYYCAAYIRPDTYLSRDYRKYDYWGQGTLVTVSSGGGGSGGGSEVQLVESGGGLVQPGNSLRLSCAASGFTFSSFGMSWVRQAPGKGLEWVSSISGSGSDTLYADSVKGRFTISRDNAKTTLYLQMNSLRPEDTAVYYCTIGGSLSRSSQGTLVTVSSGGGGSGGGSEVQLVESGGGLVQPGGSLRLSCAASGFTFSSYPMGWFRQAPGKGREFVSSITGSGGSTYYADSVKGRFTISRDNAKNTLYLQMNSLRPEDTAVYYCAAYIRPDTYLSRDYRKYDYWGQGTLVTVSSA
T3 sequence (chain, as listed by the source): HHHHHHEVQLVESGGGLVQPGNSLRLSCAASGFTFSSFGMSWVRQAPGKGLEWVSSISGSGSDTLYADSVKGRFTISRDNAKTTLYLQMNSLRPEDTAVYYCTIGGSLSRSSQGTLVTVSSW
T27 sequence (VHH, as listed by the source): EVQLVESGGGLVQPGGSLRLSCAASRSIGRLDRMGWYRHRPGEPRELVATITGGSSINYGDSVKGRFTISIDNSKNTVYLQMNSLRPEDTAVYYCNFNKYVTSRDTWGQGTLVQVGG
T35 sequence (VHH, as listed by the source): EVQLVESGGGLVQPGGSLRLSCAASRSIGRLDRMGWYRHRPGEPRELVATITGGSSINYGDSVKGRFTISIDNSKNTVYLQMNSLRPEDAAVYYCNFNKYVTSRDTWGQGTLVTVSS
T47 sequence (chain, as listed by the source): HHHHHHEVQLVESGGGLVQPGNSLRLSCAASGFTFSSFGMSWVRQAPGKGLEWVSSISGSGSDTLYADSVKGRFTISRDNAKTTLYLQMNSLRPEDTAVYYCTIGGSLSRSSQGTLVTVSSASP
T16 sequence (chain, as listed by the source): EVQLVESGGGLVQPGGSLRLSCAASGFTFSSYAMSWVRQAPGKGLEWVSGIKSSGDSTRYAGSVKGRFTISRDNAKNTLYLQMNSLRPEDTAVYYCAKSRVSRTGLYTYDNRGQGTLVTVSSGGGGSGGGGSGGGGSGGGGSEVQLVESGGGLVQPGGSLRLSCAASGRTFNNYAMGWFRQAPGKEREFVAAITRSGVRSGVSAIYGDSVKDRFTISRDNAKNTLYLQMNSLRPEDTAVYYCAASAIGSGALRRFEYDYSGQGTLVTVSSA
T29 sequence (chain, as listed by the source): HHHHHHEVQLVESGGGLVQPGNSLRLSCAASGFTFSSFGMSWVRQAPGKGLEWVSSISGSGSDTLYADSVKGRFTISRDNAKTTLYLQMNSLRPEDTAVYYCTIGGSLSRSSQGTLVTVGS
T8 sequence (chain, as listed by the source): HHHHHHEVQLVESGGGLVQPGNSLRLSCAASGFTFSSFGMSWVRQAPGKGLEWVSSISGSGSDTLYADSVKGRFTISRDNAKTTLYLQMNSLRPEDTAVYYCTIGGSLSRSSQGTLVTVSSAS
T2 sequence (VHH, as listed by the source): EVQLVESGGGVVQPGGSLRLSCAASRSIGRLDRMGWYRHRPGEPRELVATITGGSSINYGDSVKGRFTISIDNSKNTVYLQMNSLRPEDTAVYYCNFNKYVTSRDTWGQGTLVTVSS
T40 sequence (VHH, as listed by the source): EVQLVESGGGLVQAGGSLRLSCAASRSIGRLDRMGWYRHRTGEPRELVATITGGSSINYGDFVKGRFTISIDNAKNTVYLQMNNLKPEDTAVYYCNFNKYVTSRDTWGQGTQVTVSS
T22 sequence (VHH, as listed by the source): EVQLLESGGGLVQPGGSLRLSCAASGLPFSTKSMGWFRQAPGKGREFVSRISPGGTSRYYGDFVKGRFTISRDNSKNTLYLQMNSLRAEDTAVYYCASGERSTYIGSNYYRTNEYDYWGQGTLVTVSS
T39 sequence (VHH, as listed by the source): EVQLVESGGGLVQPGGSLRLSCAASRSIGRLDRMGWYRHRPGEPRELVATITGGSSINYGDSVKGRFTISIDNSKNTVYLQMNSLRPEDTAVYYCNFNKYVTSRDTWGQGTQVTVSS
T6 sequence (VHH, as listed by the source): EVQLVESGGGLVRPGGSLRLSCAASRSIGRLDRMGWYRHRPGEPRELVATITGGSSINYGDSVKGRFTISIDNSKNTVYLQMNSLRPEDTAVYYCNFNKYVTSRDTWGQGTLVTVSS
T14 sequence (VHH, as listed by the source): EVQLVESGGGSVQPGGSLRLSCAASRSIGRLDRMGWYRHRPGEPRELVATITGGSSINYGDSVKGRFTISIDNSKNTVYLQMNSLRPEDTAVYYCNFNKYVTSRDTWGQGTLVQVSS
T43 sequence (VHH, as listed by the source): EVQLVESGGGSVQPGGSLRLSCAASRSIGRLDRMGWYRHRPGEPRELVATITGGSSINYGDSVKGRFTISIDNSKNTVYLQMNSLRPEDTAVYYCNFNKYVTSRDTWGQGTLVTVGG
T17 sequence (chain, as listed by the source): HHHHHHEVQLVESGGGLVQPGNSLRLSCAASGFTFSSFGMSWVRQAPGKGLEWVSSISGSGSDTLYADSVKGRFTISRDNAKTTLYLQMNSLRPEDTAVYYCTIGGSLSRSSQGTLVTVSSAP
T46 sequence (chain, as listed by the source): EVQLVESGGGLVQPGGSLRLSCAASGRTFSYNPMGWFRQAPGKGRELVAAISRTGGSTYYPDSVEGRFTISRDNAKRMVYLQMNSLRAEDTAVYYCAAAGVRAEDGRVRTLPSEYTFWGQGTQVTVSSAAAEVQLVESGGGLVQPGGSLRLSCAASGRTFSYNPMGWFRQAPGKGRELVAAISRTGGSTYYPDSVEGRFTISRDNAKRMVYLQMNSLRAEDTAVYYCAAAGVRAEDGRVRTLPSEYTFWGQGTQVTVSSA
T42 sequence (chain, as listed by the source): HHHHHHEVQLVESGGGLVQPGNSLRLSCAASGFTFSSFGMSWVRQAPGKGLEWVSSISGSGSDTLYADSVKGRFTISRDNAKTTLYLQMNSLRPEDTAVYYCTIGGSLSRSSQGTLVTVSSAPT
T7 sequence (VHH, as listed by the source): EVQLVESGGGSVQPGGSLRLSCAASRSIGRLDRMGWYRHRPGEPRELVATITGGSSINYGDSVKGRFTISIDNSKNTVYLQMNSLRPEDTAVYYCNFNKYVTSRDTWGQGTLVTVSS
T19 sequence (chain, as listed by the source): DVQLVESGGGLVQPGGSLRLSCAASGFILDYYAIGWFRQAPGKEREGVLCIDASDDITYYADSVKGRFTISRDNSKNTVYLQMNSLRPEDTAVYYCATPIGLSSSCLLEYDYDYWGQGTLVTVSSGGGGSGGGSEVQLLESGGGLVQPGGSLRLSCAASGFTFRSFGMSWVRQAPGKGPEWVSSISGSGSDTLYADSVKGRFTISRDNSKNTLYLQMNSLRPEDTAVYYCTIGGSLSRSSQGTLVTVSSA
T4 sequence (chain, as listed by the source): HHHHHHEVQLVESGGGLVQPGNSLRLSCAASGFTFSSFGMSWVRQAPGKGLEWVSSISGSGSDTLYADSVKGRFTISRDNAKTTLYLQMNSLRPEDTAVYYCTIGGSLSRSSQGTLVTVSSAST
T5 sequence (chain, as listed by the source): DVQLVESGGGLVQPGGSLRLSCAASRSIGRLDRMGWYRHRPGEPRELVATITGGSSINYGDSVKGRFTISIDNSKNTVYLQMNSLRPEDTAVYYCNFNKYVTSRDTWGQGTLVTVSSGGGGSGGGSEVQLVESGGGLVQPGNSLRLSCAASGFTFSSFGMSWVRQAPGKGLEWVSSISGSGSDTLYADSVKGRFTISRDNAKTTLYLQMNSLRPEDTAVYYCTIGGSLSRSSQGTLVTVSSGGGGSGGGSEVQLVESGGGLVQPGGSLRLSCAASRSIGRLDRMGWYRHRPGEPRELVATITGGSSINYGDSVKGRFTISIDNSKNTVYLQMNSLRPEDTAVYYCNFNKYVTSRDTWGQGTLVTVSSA
T24 sequence (VHH, as listed by the source): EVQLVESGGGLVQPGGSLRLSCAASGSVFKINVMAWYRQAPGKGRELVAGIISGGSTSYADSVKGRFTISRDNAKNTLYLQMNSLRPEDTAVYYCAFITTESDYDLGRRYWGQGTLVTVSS
T31 sequence (VHH, as listed by the source): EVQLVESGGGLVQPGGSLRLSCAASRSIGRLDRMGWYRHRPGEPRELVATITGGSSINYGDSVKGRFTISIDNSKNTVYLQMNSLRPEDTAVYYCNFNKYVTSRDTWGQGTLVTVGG
T33 sequence (VHH, as listed by the source): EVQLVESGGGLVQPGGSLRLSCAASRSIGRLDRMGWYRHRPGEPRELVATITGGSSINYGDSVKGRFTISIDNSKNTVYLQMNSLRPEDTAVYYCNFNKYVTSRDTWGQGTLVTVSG
T23 sequence (VHH, as listed by the source): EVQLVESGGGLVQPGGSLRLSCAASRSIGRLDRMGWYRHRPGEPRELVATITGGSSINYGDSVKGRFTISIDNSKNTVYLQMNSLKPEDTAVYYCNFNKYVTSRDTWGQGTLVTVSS

B1: monoclonal antibody 21-4-3 (antibody, V domains shown)
VH: QIQLVQSGPELKKPGETVKISCKASGYTFTAYSMHWVKQAPGKGLKWMGWINTVTGEPAYADDFKGRFAFSLETSASTAYLQISSLKNEDTATYFCTRGLIHFYYWGQGTTLTVSS
VL: DIQMTQTPSSLSASLGGRVTITCKASQDIHNFISWYQHKPGKVPRLIIHDTSTLQPGIPSRFSGSGSGRDYSFSITNLEPEDIATYYCLHYDNLLRSFGGGTKLEIKR
notes: also called mAb21-4-3; mAb 21-4-3
binding level as % of reference sequence (=100%) (SEQ ID NO: 37): 7% | binding level as % of reference sequence (=100%) (SEQ ID NO: 81): 75% | binding level as % of reference sequence (=100%) (SEQ ID NO: 63): 3% | binding level as % of reference sequence (=100%) (SEQ ID NO: 58): 6% | binding level as % of reference sequence (=100%) (SEQ ID NO: 44): 1% | binding level as % of reference sequence (=100%) (SEQ ID NO: 78): 1% | binding level as % of reference sequence (=100%) (SEQ ID NO: 66): 48% | binding level as % of reference sequence (=100%) (SEQ ID NO: 57): 6% | binding level as % of reference sequence (=100%) (SEQ ID NO: 70): 106% | binding level as % of reference sequence (=100%) (SEQ ID NO: 39): 0% | binding level as % of reference sequence (=100%) (SEQ ID NO: 75): 1% | binding level as % of reference sequence (=100%) (SEQ ID NO: 48): 3% | binding level as % of reference sequence (=100%) (SEQ ID NO: 64): 6% | binding level as % of reference sequence (=100%) (SEQ ID NO: 86): 64% | binding level as % of reference sequence (=100%) (SEQ ID NO: 65): 23% | binding level as % of reference sequence (=100%) (SEQ ID NO: 38): 0% | binding level as % of reference sequence (=100%) (SEQ ID NO: 61): 6% | binding level as % of reference sequence (=100%) (SEQ ID NO: 88): 1% | binding level as % of reference sequence (=100%) (SEQ ID NO: 43): 3% | binding level as % of reference sequence (=100%) (SEQ ID NO: 59): 6% | binding level as % of reference sequence (=100%) (SEQ ID NO: 89): 2% | binding level as % of reference sequence (=100%) (SEQ ID NO: 49): 4% | binding level as % of reference sequence (=100%) (SEQ ID NO: 67): 101% | binding level as % of reference sequence (=100%) (SEQ ID NO: 47): 4% | binding level as % of reference sequence (=100%) (SEQ ID NO: 68): 26% | binding level as % of reference sequence (=100%) (SEQ ID NO: 74): 1% | binding level as % of reference sequence (=100%) (SEQ ID NO: 80): 51% | binding level as % of reference sequence (=100%) (SEQ ID NO: 76): 2% | binding level as % of reference sequence (=100%) (SEQ ID NO: 52): 100% | binding level as % of reference sequence (=100%) (SEQ ID NO: 82): 56% | binding level as % of reference sequence (=100%) (SEQ ID NO: 72): 45% | binding level as % of reference sequence (=100%) (SEQ ID NO: 55): 6% | binding level as % of reference sequence (=100%) (SEQ ID NO: 71): 44% | binding level as % of reference sequence (=100%) (SEQ ID NO: 77): 1% | binding level as % of reference sequence (=100%) (SEQ ID NO: 83): 79% | binding level as % of reference sequence (=100%) (SEQ ID NO: 85): 32% | binding level as % of reference sequence (=100%) (SEQ ID NO: 41): 7% | binding level as % of reference sequence (=100%) (SEQ ID NO: 84): 91% | binding level as % of reference sequence (=100%) (SEQ ID NO: 69): 106% | binding level as % of reference sequence (=100%) (SEQ ID NO: 45): 22% | binding level as % of reference sequence (=100%) (SEQ ID NO: 73): 1% | binding level as % of reference sequence (=100%) (SEQ ID NO: 62): 6% | binding level as % of reference sequence (=100%) (SEQ ID NO: 87): 41% | binding level as % of reference sequence (=100%) (SEQ ID NO: 79): 2% | binding level as % of reference sequence (=100%) (SEQ ID NO: 40): 1% | binding level as % of reference sequence (=100%) (SEQ ID NO: 42): 0% | binding level as % of reference sequence (=100%) (SEQ ID NO: 60): 6%
